According to publication PMC11505714, “A Double-Stranded Aptamer for Highly Sensitive Fluorescent Detection of Glutathione S-Transferases”:

B1: Seq3-2 (ssDNA)
DNA: AGCGTCGGATACCACTACTATGCCGGTCGGGGGTTGGGGATCTCTCTTGGGGGAGGGTT
B2: Seq3 (ssDNA)
DNA: AGCGTCGGATACCACTACTATGCCGGTCGGGGGTTGGGGATCTCTCTTGGGGGAGGGTTATCATGGAGTTCGTGGTCAG
B3: Seq3-1 (ssDNA)
DNA: TGCCGGTCGGGGGTTGGGGATCTCTCTTGGGGGAGGGTTATCATGGAGTTCGTGGTCAG

Biological target: Glutathione S-transferase (GST) (UniProt P08515 1-218)
Assay: bead fluorescence, confocal microscopy; 37 °C; BB: 20 mM HEPES pH 7.4, 120 mM NaCl, 5 mM KCl, 2 mM MgCl2; wash BB + 0.05% Tween 20; 37 °C, 40 min (section 2.1 gives another binding buffer: DPBS, 5 mM MgCl2)
Conditions: protein: recombinant, tags: biotinylated, on streptavidin agarose beads, chain copies: 2

Glutathione S-transferase (GST), sequence (P08515 whole entry): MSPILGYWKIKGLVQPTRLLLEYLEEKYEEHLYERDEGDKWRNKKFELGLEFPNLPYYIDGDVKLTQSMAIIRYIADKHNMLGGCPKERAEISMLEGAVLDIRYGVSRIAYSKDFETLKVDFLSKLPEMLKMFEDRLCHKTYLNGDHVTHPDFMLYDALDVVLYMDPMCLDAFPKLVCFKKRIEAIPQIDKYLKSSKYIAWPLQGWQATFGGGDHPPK

Binder	Kd (label: FAM) [nM]	Kd (label: FAM (also called AF488), two small stem-loops with a large loop (Mfold)) [nM]
TGCCGGTCGGGGGTTGGGGATCTCTCTTGGGGGAGGGTT (ssDNA) [Seq3-3]	268 ± 89.4	
B1	118 ± 21.7	
B2		34 ± 5.6
B3	29.3 ± 4.8	
